Assay results reported in article doi:10.1101/2025.05.27.656346.

Target: β-gal 4-domain fragment 1-725 (E. coli)
Assay: negative-stain EM

stoichiometry N: 4
Substance: β-gal 4-domain fragment 1-725 (domain or fragment)
